Reference: patent US20240141038A1 (SHANGHAI QILU PHARMACEUTICAL RESEARCH AND DEVELOPMENT CENTRE, published 2024)

B1: NKp46-PC8 VHH (his and c-Myc labels) (VHH)
VHH: EVQLVESGGGSVQAGGSLRLSCAVSRGSMASTGCMAWFRQTPGKEREAVAIINISGTTRYTDSVKGRFTIAQDSAKNTLTLQMNSLKPEDTGMYYCAATQNPRTVGRGYCTGDYFQVGGGGYSFWGQGTQVTVSS
notes: IPTG-induced E. coli supernatant used in the screening ELISA; also called NKp46-PC8 clone supernatant; not shown: his and c-Myc labels
B2: NKp46-PA40 VHH (his and c-Myc labels) (VHH)
VHH: QVQLVESGGGLVQAGGSLRLSCAASGRTFSRYSMGWFRQAPGKEREFVAAISSSGDVTHYADSAKGRFIISRDNAKNTVSLQVNSVNLEDTAVYYCAASLTARATTVTVHPNGYNYWGQGTQVTVSS
notes: IPTG-induced E. coli supernatant used in the screening ELISA; also called NKp46-PA40 clone supernatant; not shown: his and c-Myc labels
B3: NKp46-PC1 VHH (his and c-Myc labels) (VHH)
VHH: QVQLVESGGGSVQAGGSLTLSCATSGYTYRTDCMGWFRQAPGKEREGLATIYTSDGRTDYANSVKGRFTISQDNAKNTLYLHMNNLKPEDTAIYYCAADPQYGGVCPSGGWNYWGQGTQVTVSS
notes: IPTG-induced E. coli supernatant used in the screening ELISA; also called NKp46-PC1 clone supernatant; not shown: his and c-Myc labels
B4: NKp46-PC7 VHH (his and c-Myc labels) (VHH)
VHH: EVQLVESGGGSVQAGGSLRLSCAASGYTYRTDCMGWFRQAPGKEREGLATIYTSDGRTAYADSVKGRFTISQDNAKNTLYLDMNTLKPEDTAMYYCAADLQYGGSCPSGGWKYWGQGTLVTVSS
notes: IPTG-induced E. coli supernatant used in the screening ELISA; also called NKp46-PC7 clone supernatant; not shown: his and c-Myc labels
B5: NKp46-PC16 VHH (his and c-Myc labels) (VHH)
VHH: DVQLVESGGGLVQPGGSLRLSCAISGFTFSIVSMSWVRQAPGKGPERVSWINGDSSNTSYADSVKGRFTISRDNARNMLYLQMNSLKSEDTARYYCTTQNSHYDIRFGYWGQGTQVTVSS
notes: IPTG-induced E. coli supernatant used in the screening ELISA; also called NKp46-PC16 clone supernatant; not shown: his and c-Myc labels
B6: NKp46-PA69 VHH (his and c-Myc labels) (VHH)
VHH: QVQLVESGGGLIQAGGSLRLSCVASERSLTLYAMGWFRQAPGLEREFVAGISRTGDTTYSPDSVKGRFTISRDNAKNVLYLQMNSLKPDDTAVYYCAASATYSATNIYTHQRAYGDWGQGTQVTVSS
notes: IPTG-induced E. coli supernatant used in the screening ELISA; also called NKp46-PA69 clone supernatant; not shown: his and c-Myc labels
B7: NKp46-PC11 VHH (his and c-Myc labels) (VHH)
VHH: DVQLVESGGGSVQAGGSLRLSCAPSPYSANSFSMAWFRQVPGKEREGIACIQAESGSTNVAPSVKGRFSISQDNAKNTLYLQMNNLKPEDTAMYYCAAFKRNVGGCELRPEHWRFWGQGTLVTVSS
notes: IPTG-induced E. coli supernatant used in the screening ELISA; also called NKp46-PC11 clone supernatant; not shown: his and c-Myc labels
B8: NKp46-PA31 VHH (his and c-Myc labels) (VHH)
VHH: DVQLVESGGGLVQAGDSLRLSCAVSGRTFSRLPMGWFRQGPGKDREFVAAISWSSSTTYYADSVKGRFFISRDNAKNTAYLQMNNLRLEDTAVYYCAAVGGSLDYSATVVYTAARAYADWGQGTLVTVSS
notes: IPTG-induced E. coli supernatant used in the screening ELISA; also called NKp46-PA31 clone supernatant; not shown: his and c-Myc labels
B9: NKp46-PC12 VHH (his and c-Myc labels) (VHH)
VHH: QVQLVESGGGSVQTGGSLRLSCTAPGFTTDSCGMDWYRQAAGKQREWVSRIRPDGRTDYVESVKGRFTISEDKAKYTVYLQMNSLKPEDTAMYSCTTWGLCTAKFRWGQGTQVTVSS
notes: IPTG-induced E. coli supernatant used in the screening ELISA; also called NKp46-PC12 clone supernatant; not shown: his and c-Myc labels
B10: NKp46-PC3 VHH (his and c-Myc labels) (VHH)
VHH: DVQLVESGGGSVEAGGSLRLSCAASGYRQRTMGWFRQAPGKAREGVACIYTGPTTTFTDYADSVKGRFTITQDNAKNTVYLQMNSLKPEDTAMYYCAANLAYPLTIIPDTRWGQGTQVTVSS
notes: IPTG-induced E. coli supernatant used in the screening ELISA; also called NKp46-PC3 clone supernatant; not shown: his and c-Myc labels
B11: NKp46-PA45 VHH (his and c-Myc labels) (VHH)
VHH: QVQLVESGGGLVQAGGSLRLLCAASGRTFSRLPMAWFRQGPGKDREFVAAISWSGGSTYYADSMKGRFTISRDNAKNTAYLQMNSLRLEDTAVYYCAAVGDSAPYSATIVYTDARAYAYWGQGTQVTVSS
notes: IPTG-induced E. coli supernatant used in the screening ELISA; also called NKp46-PA45 clone supernatant; not shown: his and c-Myc labels
B12: NKp46-PC4 VHH (his and c-Myc labels) (VHH)
VHH: EVQLVESGGGSVQAGGSLRLSCTVSGYTGTIEYMGWGWFRQAPGKEREGVAYINTGGGTSVYDDSVKGRFTISKDDVNLTVYLQMNSLKPEDTAIYYCATGSFFGIWYKVPATQYFHYWGQGTQVTVSS
notes: IPTG-induced E. coli supernatant used in the screening ELISA; also called NKp46-PC4 clone supernatant; not shown: his and c-Myc labels
B13: NKp46-PA63 VHH (his and c-Myc labels) (VHH, not shown: small tags and cut ends)
VHH: EVQLVESGGGLVQPGGSLRLSCAASGRTSTSYAMGWFRQAPGKEREFVAAINRSGDFPYYADSVKGRFTIFRDNAKNTVYLQMSSVKPEDTGVYFCAAAPRAPATQVVISAFGYEYWGQGTQVTVSS
notes: also called NKp46-PA63 clone supernatant
B14: NKp46-PA2 VHH (his and c-Myc labels) (VHH)
VHH: DVQLVESGGGLVQAGGSLRLSCAASGRTLSSYAMGWFRQAPGLEREFVAAISRISGDTYSPDSVKGRFTISRDNAKNTLYLQMNSLKPEDTAVYYCAASATPSATNIYTNQYAYGDWGQGTQVTVSS
notes: IPTG-induced E. coli supernatant used in the screening ELISA; also called NKp46-PA2 clone supernatant; not shown: his and c-Myc labels
B15: NKp46-PC6 VHH (his and c-Myc labels) (VHH)
VHH: DVQLVESGGGSVQAGGSLRLSCAASGYRSRHYCMGWFRQFPGKERERVALINTGGPTTFYADFVEGRFTISLDNAKNTLSLQMNSLKPEDTAMYYCAAGPPSSDSGSGCYVPEYMYNYWGQGTQVTVSS
notes: IPTG-induced E. coli supernatant used in the screening ELISA; also called NKp46-PC6 clone supernatant; not shown: his and c-Myc labels
B16: NKp46-PA34 VHH (his and c-Myc labels) (VHH)
VHH: QVQLVESGGGLVQTGGSLRLSCAASGSTSSFYRMGWFRQAPGKEREAVARISSSAGLIYYVDSVKGRFTISRAGAKNTVYLQMNSLKPEDTAVYYCAADRHGTRWDYWGQGTQVTVSS
notes: IPTG-induced E. coli supernatant used in the screening ELISA; also called NKp46-PA34 clone supernatant; not shown: his and c-Myc labels
B17: NKp46-PA36 VHH (his and c-Myc labels) (VHH)
VHH: QVQLVESGGGLVQAGGSLRLSCAASGRSFSRYAMGWFRQAPGKERDFVAAISSSGDPTYYADSVKGRFTISRVNAKNTVYLQMNSVNPGDTAVYYCAAGLTARDTTVVVHPNGYSYWGQGTQVTVSS
notes: IPTG-induced E. coli supernatant used in the screening ELISA; also called NKp46-PA36 clone supernatant; not shown: his and c-Myc labels
B18: NKp46-PC13 VHH (his and c-Myc labels) (VHH)
VHH: DVQLVESGGGSVQAGGSLRLSCAASGYTRSIYYMGWFRQAPGKEREGVAVMHTGGGSTYYTDSVKGRFTISQDNAKNTVYLQMNSLKPEDTAMYYCAASKYLLAFGGVEWILRPAGGWDYWAQGTQVTVSS
notes: IPTG-induced E. coli supernatant used in the screening ELISA; also called NKp46-PC13 clone supernatant; not shown: his and c-Myc labels
B19: NKp46-PC9 VHH (his and c-Myc labels) (VHH)
VHH: QVQLVESGGGSVQAGGSLRLSCAASGYTYRRYCMAWFRQGPGKEREGVACLDRDGSTTYADSVKGRFTISRDNANDTLYLQMNSLKPEDTALYRCAAAQPGDCWGRRYGFNTWGQGTLVTVSS
notes: IPTG-induced E. coli supernatant used in the screening ELISA; also called NKp46-PC9 clone supernatant; not shown: his and c-Myc labels

Columns and labels:
[1] = biological target: T1, Cynomolgus monkey NKp46 for immunization, screening, and testing (Kactus, NKP-CM146) (cynomolgus monkey, UniProt Q95JB9 22-254); assay: ELISA, coated antigen, VHH supernatant, anti-Myc HRP
T1 construct: Bought protein; also called monkey NKp46 antigen protein; cynomolgus monkey NKp46 antigen
Procedure: (§1) In order to obtain positive antibodies that can cross-bind to human NKp46 and cynomolgus monkey NKp46, the above libraries were amplified and added into M13K07 helper phage and assembled into bacteriophages. 1×10¹² pfu of immune camel antibody library and immune alpaca antibody library were added thereto, and the phages were incubated with biotinylated human NKp46 protein (8 μg/mL) bound to magnetic beads for 1 h at room temperature. After washing off the unbound bacteriophages with 0.05% PBST, the phages specifically bound to NKp46 were eluted with […] triethylamine, and after gradient dilution of the bacteriophages above, E. coli SS320 in the logarithmic growth phase were infected. After being cultured overnight at 37° C. on plates containing ampicillin, single-clone was picked for IPTG-induced expression, and the supernatant was used for ELISA assay. ELISA plates were coated with […] human NKp46 antigen or cynomolgus monkey NKp46 antigen overnight at 4° C., then washed 3 times with 0.05% PBST and blocked with 5% skim milk at room temperature for 1 h, and washed 3 times with 0.05% PBST. Then 30 µL of induced supernatant was then added into per well, medium were added to negative control wells, the ELISA plates were incubated at room temperature for 1 h, and finally detected with anti-Myc HRP (VHH with his and c-Myc labels were expressed by the induction of IPTG. Sequence clones that had OD450 values of greater than 1.0 for binding to human NKp46 and cynomolgus monkey NKp46 as determined by ELISA, and of which the ratio of OD450 values to that of negative control were greater than 3 were sequenced, thereby obtaining amino acid sequences of 30 variable regions of heavy chain antibodies disclosed in the present disclosure, as shown in Table 2.

[2] = biological target: T2, Human NKp46 antigen for immunization, screening, and testing (Kactus, NKP-HM146) (human, UniProt O76036 22-255); assay: as above
T2 construct: Bought protein; also called human NKp46 antigen protein; human NKp46 protein
Procedure: as §1

T1 sequence (Q95JB9 other isoform, or with tags, fused parts or gaps limits assumed): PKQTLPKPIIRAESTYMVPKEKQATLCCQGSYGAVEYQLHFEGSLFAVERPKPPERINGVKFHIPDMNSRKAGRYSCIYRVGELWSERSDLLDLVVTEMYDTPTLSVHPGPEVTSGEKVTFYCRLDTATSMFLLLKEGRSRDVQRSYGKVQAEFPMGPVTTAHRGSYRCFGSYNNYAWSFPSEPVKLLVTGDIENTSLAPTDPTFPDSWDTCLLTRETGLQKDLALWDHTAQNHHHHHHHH
T2 sequence (O76036 other isoform, or with tags, fused parts or gaps limits assumed): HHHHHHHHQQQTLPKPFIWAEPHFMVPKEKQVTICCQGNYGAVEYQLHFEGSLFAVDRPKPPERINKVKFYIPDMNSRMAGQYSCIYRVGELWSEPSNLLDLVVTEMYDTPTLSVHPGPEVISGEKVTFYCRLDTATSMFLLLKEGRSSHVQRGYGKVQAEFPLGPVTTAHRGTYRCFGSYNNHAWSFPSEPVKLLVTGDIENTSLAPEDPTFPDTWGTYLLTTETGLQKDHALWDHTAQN

Row | Binder | OD450 [1] | ratio of OD450 to negative control [1] | OD450 [2] | ratio of OD450 to negative control [2]
1 | B1 | > 1 | > 3 | > 1 | > 3
2 | B2 | > 1 | > 3 | > 1 | > 3
3 | B3 | > 1 | > 3 | > 1 | > 3
4 | B4 | > 1 | > 3 | > 1 | > 3
5 | B5 | > 1 | > 3 | > 1 | > 3
6 | B6 | > 1 | > 3 | > 1 | > 3
7 | B7 | > 1 | > 3 | > 1 | > 3
8 | B8 | > 1 | > 3 | > 1 | > 3
9 | B9 | > 1 | > 3 | > 1 | > 3
10 | B10 | > 1 | > 3 | > 1 | > 3
11 | B11 | > 1 | > 3 | > 1 | > 3
12 | B12 | > 1 | > 3 | > 1 | > 3
13 | B13 | > 1 | > 3 | > 1 | > 3
14 | B14 | > 1 | > 3 | > 1 | > 3
15 | B15 | > 1 | > 3 | > 1 | > 3
16 | B16 | > 1 | > 3 | > 1 | > 3
17 | B17 | > 1 | > 3 | > 1 | > 3
18 | B18 | > 1 | > 3 | > 1 | > 3
19 | B19 | > 1 | > 3 | > 1 | > 3
